Data as given in the supplement of paper PMC7125110.
± gives the standard error. For part of these data: This sample holds only a part of the variants without activity.

B1: glmS ribozyme (parent)
chain: AUAAAAGCGCCAGAACUACAGAAAUGUAGUUGACGAGGAGGAGGUUUAUCGAAUUUUCGGCGGAUGCCUCCAAA

How the values were obtained:
Settings in all cases: with glucosamine-6-phosphate
glucosamine-6-phosphate [1] = variants of: B1; experiment: kcat; higher = faster cleavage; RNA array
Method in brief: (§1)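 Barcoded ribozyme variants, transcribed in situ by E. coli RNA polymerase on sequenced MiSeq chips, were followed via a hybridised Cy3 probe at 37 °C. Glucosamine-6-phosphate ranged from 40 μM to 10 mM in HEPES/KCl/Mg(OAc)2 buffer. kobs came from decay fits to per-tile medians, and kcat and KM from weighted Michaelis–Menten fits.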

glucosamine-6-phosphate [2] = variants of: B1; experiment: self-cleavage kobs at 2500 uM GlcN6P; higher = faster cleavage; RNA array
Method in brief: as §1

glucosamine-6-phosphate [3] = variants of: B1; experiment: KM; higher = weaker cofactor use; RNA array
Method in brief: as §1

glucosamine-6-phosphate [4] = variants of: B1; experiment: self-cleavage kobs at 160 uM GlcN6P; higher = faster cleavage; RNA array
Method in brief: as §1

glucosamine-6-phosphate [5] = variants of: B1; experiment: self-cleavage kobs at 640 uM GlcN6P; higher = faster cleavage; RNA array
Method in brief: as §1

glucosamine-6-phosphate [6] = variants of: B1; experiment: self-cleavage kobs at 10000 uM GlcN6P; higher = faster cleavage; RNA array
Method in brief: as §1

glucosamine-6-phosphate [7] = variants of: B1; experiment: self-cleavage kobs at 40 uM GlcN6P; higher = faster cleavage; RNA array
Method in brief: as §1

Variant	kcat (glucosamine-6-phosphate [1])	self-cleavage kobs at 2500 uM GlcN6P (glucosamine-6-phosphate [2])	KM (glucosamine-6-phosphate [3])	self-cleavage kobs at 160 uM GlcN6P (glucosamine-6-phosphate [4])	self-cleavage kobs at 640 uM GlcN6P (glucosamine-6-phosphate [5])	self-cleavage kobs at 10000 uM GlcN6P (glucosamine-6-phosphate [6])	self-cleavage kobs at 40 uM GlcN6P (glucosamine-6-phosphate [7])
AUAAAAGCGCCAGAACUACAGAAAUGUAGUUGACGAGGCGGAGGUUUAUCGAAUUUCCGGCGGAUGCCUCCAAA	1.89e-05 ± 2.4e-06 s⁻¹	1.97e-05 ± 9.4e-06 s⁻¹					
AUAAAAGCGCCAGUACUACAGAAAUGUAGUUUACGAGGAGGAGGUUUAUCGAAUUUUCGGCGGAUGCCUCCAAA	0.000874 ± 0.00012 s⁻¹	0.000422 ± 4e-05 s⁻¹	3050 ± 730 µM	7.67e-05 ± 1.7e-05 s⁻¹	0.000142 ± 1.2e-05 s⁻¹	0.00066 ± 5.2e-05 s⁻¹	
AUAAAAGCGCUAGAACUACAGAAAUGUAGUUGACGACGAGGAGGUUUAUCGAAUUUACGGCGGAUGCCUCCAAA	1.82e-05 ± 2.9e-06 s⁻¹					< 1e-05 s⁻¹	
AUAAAAGCGCCAGAACUACAGAAAUGUAGUCGUCGAGGAGGAGGUUUAUCGAAUUUUCGGCGGAUGCCUCCAAA	1.97e-05 ± 2.4e-06 s⁻¹					1.73e-05 ± 6e-06 s⁻¹	
AUAAAAGCGUCAGAACUACAGAAAUGUAGUUGACGAGGAGGAGGUUUAUCGAAUUUUCGACGGAUGCCUCUAAA	1.14e-05 ± 1.1e-06 s⁻¹		2050 ± 570 µM				
AUAAAAGCGCCAGAACUACAGAAAUGUAGUUUACGAGGAGGGGGUUUAUCGAAUUUUCGGCGGAUGCCUCCAAA	0.00137 ± 0.00021 s⁻¹	0.000528 ± 0.00013 s⁻¹	3790 ± 810 µM	4.61e-05 ± 1.7e-05 s⁻¹	0.000218 ± 4e-05 s⁻¹	0.000988 ± 0.00023 s⁻¹	
AUAAAAGCGCCAGAACUAAAGAAAUGUAGUUGACGAGGAGGAGGUUUAUCGAAUUUUCGGCGGAUGCCUCCAAA	0.0165 ± 0.0045 s⁻¹	0.011 ± 0.0021 s⁻¹	610 ± 220 µM	0.00456 ± 0.00078 s⁻¹	0.00758 ± 0.00099 s⁻¹	0.0275 ± 0.0046 s⁻¹	0.00101 ± 8.1e-05 s⁻¹
AUAAAAGCGCCUGAACUACAGAAAUGUAGUUGACGAGGAGGAGGUUUAUCGAAUUUUCGGCGGUUGCCUCCAAA	0.00027 ± 2.8e-05 s⁻¹	0.000168 ± 1.8e-05 s⁻¹	2420 ± 540 µM		5.21e-05 ± 5.8e-06 s⁻¹	0.000211 ± 1.4e-05 s⁻¹	
AUAAAAGCGCCAGAACUACAGAAAUGUAGUUGACGAGGAGGAGGUUUAUCGAAAUUUCGGCGGAUGCGUCCAAA	9.86e-05 ± 2.8e-06 s⁻¹	0.000106 ± 1.9e-05 s⁻¹	31 ± 7.5 µM	8.95e-05 ± 2.1e-05 s⁻¹	8.94e-05 ± 1.3e-05 s⁻¹	9.77e-05 ± 9.3e-06 s⁻¹	5.44e-05 ± 1.6e-05 s⁻¹
